From patent publication US20230151068A1 come the findings set out here.

To fix the notation:
B1: I05K variant of SEQ ID NO: 1 (designed binder)
chain: GSPDEYKERAKECCKKGDIQCCLRYFEESGDPNVMLICLFCP
B2: E06R variant of SEQ ID NO: 1 (designed binder)
chain: GSPDEYIRRAKECCKKGDIQCCLRYFEESGDPNVMLICLFCP
B3: R07K variant of SEQ ID NO: 1 (designed binder)
chain: GSPDEYIEKAKECCKKGDIQCCLRYFEESGDPNVMLICLFCP
B4: A08M variant of SEQ ID NO: 1 (designed binder)
chain: GSPDEYIERMKECCKKGDIQCCLRYFEESGDPNVMLICLFCP
B5: P01R variant of SEQ ID NO: 1 (designed binder)
chain: GSRDEYIERAKECCKKGDIQCCLRYFEESGDPNVMLICLFCP
B6: K09R variant of SEQ ID NO: 1 (designed binder)
chain: GSPDEYIERARECCKKGDIQCCLRYFEESGDPNVMLICLFCP
B7: E10M variant of SEQ ID NO: 1 (designed binder)
chain: GSPDEYIERAKMCCKKGDIQCCLRYFEESGDPNVMLICLFCP
B8: E03Q variant of SEQ ID NO: 1 (designed binder)
chain: GSPDQYIERAKECCKKGDIQCCLRYFEESGDPNVMLICLFCP
B9: K09M variant of SEQ ID NO: 1 (designed binder)
chain: GSPDEYIERAMECCKKGDIQCCLRYFEESGDPNVMLICLFCP
B10: P01N variant of SEQ ID NO: 1 (designed binder)
chain: GSNDEYIERAKECCKKGDIQCCLRYFEESGDPNVMLICLFCP
B11: D02R variant of SEQ ID NO: 1 (designed binder)
chain: GSPREYIERAKECCKKGDIQCCLRYFEESGDPNVMLICLFCP
B12: A08K variant of SEQ ID NO: 1 (designed binder)
chain: GSPDEYIERKKECCKKGDIQCCLRYFEESGDPNVMLICLFCP
B13: I05M variant of SEQ ID NO: 1 (designed binder)
chain: GSPDEYMERAKECCKKGDIQCCLRYFEESGDPNVMLICLFCP
B14: E06K variant of SEQ ID NO: 1 (designed binder)
chain: GSPDEYIKRAKECCKKGDIQCCLRYFEESGDPNVMLICLFCP
B15: I05N variant of SEQ ID NO: 1 (designed binder)
chain: GSPDEYNERAKECCKKGDIQCCLRYFEESGDPNVMLICLFCP
B16: K09N variant of SEQ ID NO: 1 (designed binder)
chain: GSPDEYIERANECCKKGDIQCCLRYFEESGDPNVMLICLFCP
B17: Y04N variant of SEQ ID NO: 1 (designed binder)
chain: GSPDENIERAKECCKKGDIQCCLRYFEESGDPNVMLICLFCP
B18: E10R variant of SEQ ID NO: 1 (designed binder)
chain: GSPDEYIERAKRCCKKGDIQCCLRYFEESGDPNVMLICLFCP
B19: Y04M variant of SEQ ID NO: 1 (designed binder)
chain: GSPDEMIERAKECCKKGDIQCCLRYFEESGDPNVMLICLFCP
B20: I05R variant of SEQ ID NO: 1 (designed binder)
chain: GSPDEYRERAKECCKKGDIQCCLRYFEESGDPNVMLICLFCP
B21: R07N variant of SEQ ID NO: 1 (designed binder)
chain: GSPDEYIENAKECCKKGDIQCCLRYFEESGDPNVMLICLFCP
B22: D02M variant of SEQ ID NO: 1 (designed binder)
chain: GSPMEYIERAKECCKKGDIQCCLRYFEESGDPNVMLICLFCP
B23: E06M variant of SEQ ID NO: 1 (designed binder)
chain: GSPDEYIMRAKECCKKGDIQCCLRYFEESGDPNVMLICLFCP
B24: E03M variant of SEQ ID NO: 1 (designed binder)
chain: GSPDMYIERAKECCKKGDIQCCLRYFEESGDPNVMLICLFCP
B25: P01M variant of SEQ ID NO: 1 (designed binder)
chain: GSMDEYIERAKECCKKGDIQCCLRYFEESGDPNVMLICLFCP
B26: E03R variant of SEQ ID NO: 1 (designed binder)
chain: GSPDRYIERAKECCKKGDIQCCLRYFEESGDPNVMLICLFCP
B27: E06N variant of SEQ ID NO: 1 (designed binder)
chain: GSPDEYINRAKECCKKGDIQCCLRYFEESGDPNVMLICLFCP
B28: D02N variant of SEQ ID NO: 1 (designed binder)
chain: GSPNEYIERAKECCKKGDIQCCLRYFEESGDPNVMLICLFCP
B29: Y04R variant of SEQ ID NO: 1 (designed binder)
chain: GSPDERIERAKECCKKGDIQCCLRYFEESGDPNVMLICLFCP
B30: E10K variant of SEQ ID NO: 1 (designed binder)
chain: GSPDEYIERAKKCCKKGDIQCCLRYFEESGDPNVMLICLFCP
B31: D02Q variant of SEQ ID NO: 1 (designed binder)
chain: GSPQEYIERAKECCKKGDIQCCLRYFEESGDPNVMLICLFCP
B32: R07M variant of SEQ ID NO: 1 (designed binder)
chain: GSPDEYIEMAKECCKKGDIQCCLRYFEESGDPNVMLICLFCP
B33: A08N variant of SEQ ID NO: 1 (designed binder)
chain: GSPDEYIERNKECCKKGDIQCCLRYFEESGDPNVMLICLFCP
B34: E10N variant of SEQ ID NO: 1 (designed binder)
chain: GSPDEYIERAKNCCKKGDIQCCLRYFEESGDPNVMLICLFCP
B35: A08R variant of SEQ ID NO: 1 (designed binder)
chain: GSPDEYIERRKECCKKGDIQCCLRYFEESGDPNVMLICLFCP
B36: P01Q variant of SEQ ID NO: 1 (designed binder)
chain: GSQDEYIERAKECCKKGDIQCCLRYFEESGDPNVMLICLFCP
B37: E03N variant of SEQ ID NO: 1 (designed binder)
chain: GSPDNYIERAKECCKKGDIQCCLRYFEESGDPNVMLICLFCP

In the experiment the target is biotinylated His-Avi-TEAD (194-411) (UniProt P28347). The experiment can be described thus: SSM screen, enrichment after two rounds of sorting.
As for B1, the enrichment score is -1.5.

For the molecule B2, the enrichment score was -1.78.

B3 yielded an enrichment score of 0.47.

The molecule B4 displayed an enrichment score of -10.1.

In the case of B5, the enrichment score is -2.1.

B6 showed an enrichment score of -1.3.

B7 registered an enrichment score of -0.34.

For the molecule B8, the enrichment score was -1.35.

B9 came in with an enrichment score of -3.56.

With B10, the enrichment score is -0.49.

For B11, the enrichment score was -7.12.

Take B12: the enrichment score was -4.73.

B13 yielded an enrichment score of -1.87.

On to B14, for which the enrichment score is -1.13.

For the molecule B15, the enrichment score is -1.34.

For B16, the enrichment score worked out at 3.31.

Molecule B17 yielded an enrichment score of 0.04.

Molecule B18 registered an enrichment score of -2.84.

B19: the enrichment score is -0.68.

On to B20, for which the enrichment score was -3.27.

B21: the enrichment score came to 0.34.

B22: the enrichment score is -1.86.

In turn, B23 displayed an enrichment score of -2.04.

The molecule B24 showed an enrichment score of 2.57.

B25: the enrichment score is -1.02.

On to B26, for which the enrichment score was -1.81.

For the molecule B27, the enrichment score is -0.82.

Regarding B28, the enrichment score is -0.16.

B29 had an enrichment score of -0.94.

Consider B30, for which the enrichment score was -2.3.

Take B31: the enrichment score was -0.2.

In the case of B32, the enrichment score was -1.06.

On to B33, for which the enrichment score is -9.2.

With B34, the enrichment score was -0.45.

Regarding B35, the enrichment score was -5.84.

B36 displayed an enrichment score of -0.84.

For B37, the enrichment score turned out to be 0.58.
